This assay deals with RBD of the SARS-CoV-2 spike protein (Cayman Chemical kit #502050) (UniProt P0DTC2 319-541).

B1: 4-66 antibody (antibody, V domains shown)
VH: EVQLVESGGGLVQPGGSLRLSCAASGIIVSRNYMTWVRQAPGKGLEWVSVIYSGGTTYYADSVKGRFTTSRDDSKNTLYLQMNSLRGDDTAVYYCARDPPHRRGSYWGQGTLVTVSS
VL: DILMTQSPSSLSASVGDRVTITCQASQDINKYLNWYQQKPGKAPKLLIYDASNLETGVPSRFSGSGSGTDFSFTISSLQPEDVATYYCQQSDNLPPTFGQGTNVEIK
B1 returned an IC50 of 0.015 µg/mL.

B2: 1-58 antibody (antibody, V domains shown)
VH: QVQLVQSGAEVKKPGASVRVSCKASGYSFTASYMHWVRQAPGQGLEWMAIINPGDDNTSYAQKFQGRVTLTRDTSTTTVYMELRSLRSEDTAVYYCTRSTRDYVWGNYRYTPGYYLDYWGQGTLVTVSS
VL: DIRMTQSPSSLSASVGDRVTITCRASQTISNYLNWYQQKPGKAPKLLIYAASSLQSGVPSRFSGSGSGTDFTLTISSLQPEDFATYYCQQGYITPITFGQGTRLEIK
The molecule B2 registered an IC50 of 0.028 µg/mL.

B3: 1-44 antibody (antibody, V domains shown)
VH: EVQLVESGGGVVQPGSSLRLSCAASGFTFRSHAMHWVRQAPGKGLEGVAVIWYDGSNKYYADSVKGRFTISRDNSKNTLYLQMNSLRAEDTAVYYCAREGIAVPGNGADAFDIWGQGTMVTVSS
VL: DIQMTQSPSSLSASVGDRVTITCRASQSIGNFLNWYQQKPGKAPKLLIYAASSLQSGVPSRFSGSGSGTDFTLTISSLQPEDFATYYCQQTYSTPYTFGQGTKLEIK
B3 yielded an IC50 of 0.013 µg/mL.

B4: 3-1 antibody (antibody, V domains shown)
VH: EVQLVQSGAEVKKPGESLKISCKGSGYIFTNYWIGWVRQMPGKGLEWMGIINPRDSDTRYSPSFQGQVTISTDKSINTAYLQWSSLKASDTAMYYCARQQGGFGDLGAYNWFDPWGQGTLVTVSS
VL: not shown
In turn, B4 returned an IC50 of 0.031 µg/mL.

The record behind these values is patent publication US20260139035A1 (published 2026).
